One may read the Kd as the concentration at which binding is half-saturated. Low readings indicate a tighter complex, high ones a looser complex. Usually stoichiometry N stands for a count of units in the complex or per binding partner.

In test [1] the target is IRF5 (222-467) S436D (human). Description: ITC.
For test [2], the target named is IRF5 (222-467) S427D (human). Description: ITC. In general terms: Isothermal titration calorimetry measures the heat released or taken up as one component is titrated into another.
In test [3] the target is IRF5 (222-467) S430D (human). Description: ITC.
The target of test [4] is IRF5 (222-467) S457D (human). Put plainly: ITC.
In test [5] the target is IRF5 (222-467) S425D (human). Put plainly: ITC.
The target in test [6] is IRF5 (222-467) S421D (human). Put plainly: ITC.
In test [7] the target is IRF5 (residues 222-467) (human). Description: ITC.
In test [8] the target is IRF5 (222-467) S430D (human). Description: AUC.

Consider “CBP (residues 2067-2112) (from UniProt Q92793 2067-2112) (domain or fragment)”, for which the Kd was 670 nM in test [1]; 960 nM in test [2]; 560 nM in test [3]; 2410 nM in test [4]; 710 nM in test [5]; 2280 nM in test [6]. This substance also had a dissociation constant Kd in test [7] of 1640 nM. The dH was -6.8 kcal/mol in test [1]; -12.9 kcal/mol in test [2]; -15.2 kcal/mol in test [3]; -10.3 kcal/mol in test [4]; -13.3 kcal/mol in test [5]; -6.4 kcal/mol in test [6]. The substance further gave a dH in test [7] of -14.4 kcal/mol. Besides, the stoichiometry N worked out at 1.07 in test [1]; 0.98 in test [2]; 1.02 in test [3]; 1.08 in test [4]; 1.04 in test [5]; 1.03 in test [6]. The substance further had a stoichiometry N in test [7] of 1.05.
Regarding “IRF5 (222-467) S430D (domain or fragment)”, the stoichiometry N in test [8] came to 2.

The record behind these values is publication PMC2757928.
